# Columns and labels:
# [1] = tested on: GFP N-terminal phosphorylation mutant 1MRRESLLF; conditions: scale: relative to the endogenous site HKFSV of Aequorea GFP
# [2] = tested on: GFP N-terminal phosphorylation mutant 1MRRDSCLF; conditions: scale: relative to the endogenous site HKFSV of Aequorea GFP
# [3] = tested on: GFP N-terminal phosphorylation mutant 1MRKGSCLF; conditions: scale: relative to the endogenous site HKFSV of Aequorea GFP
# [4] = tested on: GFP phosphorylation mutant 214KRDSM
# [5] = tested on: GFP N-terminal phosphorylation mutant 1MSKRRDSL; conditions: scale: relative to the endogenous site HKFSV of Aequorea GFP
# [6] = tested on: GFP phosphorylation mutant 155KRKSGI; conditions: scale: relative to the endogenous site HKFSV of Aequorea GFP
# [7] = tested on: GFP phosphorylation mutant 68RRFSA; conditions: scale: relative to the endogenous site HKFSV of Aequorea GFP
# [8] = tested on: GFP N-terminal phosphorylation mutant 1MSRRDSCF; conditions: scale: relative to the endogenous site HKFSV of Aequorea GFP
# [9] = tested on: GFP phosphorylation mutant 172RRGSV; conditions: scale: relative to the endogenous site HKFSV of Aequorea GFP
# [10] = tested on: wild type Aequorea green fluorescent protein
# [11] = tested on: GFP N-terminal phosphorylation mutant 1MRKGSLLF; conditions: scale: relative to the endogenous site HKFSV of Aequorea GFP
# [12] = tested on: GFP phosphorylation mutant 25RRFSV; conditions: scale: relative to the endogenous site HKFSV of Aequorea GFP
# [13] = scale: relative to the endogenous site HKFSV of Aequorea GFP
substance,measurement,setting,value
protein kinase A catalytic subunit,Relative rates of phosphorylation,[1],3
same,Relative rates of phosphorylation,[2],3.7
same,Relative rates of phosphorylation,[3],5.1
same,kinetics of phosphorylation using gamma-32P-labeled ATP,[4],the site is poorly phosphorylated by protein kinase A
same,Relative rates of phosphorylation,[4]; [13],1.88
same,Relative rates of phosphorylation,[5],5.5
same,Relative rates of phosphorylation,[6],2.5
same,Relative rates of phosphorylation,[7],0.6
same,Relative rates of phosphorylation,[8],2.1
same,Relative rates of phosphorylation,[9],1.57
same,phosphorylation in vitro,[10],can be phosphorylated by protein kinase A in vitro with relatively slow kinetics
same,Relative rates of phosphorylation,[10]; [13],1
same,Relative rates of phosphorylation,[11],1.6
same,Relative rates of phosphorylation,[12],1.75
